The values that follow come from patent publication US20220127350A1 (NUMAB THERAPEUTICS, published 2022).

The target in experiment [1] is T1, cynomolgus monkey IL-17A (Macaca fascicularis (cynomolgus monkey)).
T1 construct: also called cyno IL-17A; cyno IL17A
The experiment in a line: SPR (Biacore T200).
Procedure: (§1) After each analyte injection cycle the CAP sensor chip was regenerated and new antigen was captured. The scFvs were injected as analyte using a dose response multi-cycle kinetic assay with concentrations of the analyte ranging from 0.35 to 90 nM diluted in running buffer. Obtained sensorgrams were fitted using the 1:1 binding model. In addition, the scFvs were analyzed in an alternative SPR assay setup (“direct setup”).

Experiment [2] has as its target T2, human IL-17A (human, UniProt Q16552 24-155, limits assumed). The experiment in a line: cell-based or functional assay.
The target in experiment [3] is T1, cynomolgus monkey IL-17A. The experiment is described as follows: SPR (Biacore T200), cynomolgus IL-17A, scFv as analyte. On the technique in general: SPR reads the build-up and loss of mass on a sensor chip optically.
Procedure: as §1
The target in experiment [4] is T2, human IL-17A. The experiment in a line: competitive ELISA: IL-17RA coated, biotinylated IL-17A preincubated with scFv. (In general: ELISA stands for enzyme-linked immunosorbent assay.)
Procedure: Finally, Tetramethylbenzidin solution (KPL, Cat. No. 53-00-00) was added to develop the plate for 5 to 10 minutes and the reaction was stopped with 1 M HCl. The plate was read using a microtiter plate reader (Infinity reader M200 Pro, Tecan) at a wavelength of 450 nm and 570 nm (reference wavelength).
Experiment [5] addresses T2, human IL-17A. The experiment is described as follows: SPR (Biacore T200), direct setup: IL-17A amine-coupled on CM5, scFv as analyte.
Procedure: as §1
For experiment [6], the target named is T2, human IL-17A. The experiment in a line: SPR (Biacore T200), capture setup: biotinylated IL-17A captured, scFv as analyte.
Procedure: as §1

B1: A2 (humanized anti-IL-17A scFv, STR graft of 27-07-G02) (scFv)
scFv: DIQMTQSPSSLSASVGDRVTITCQASQTINYWLAWYQQKPGKPPKLLIYRASTLASGVPSRFSGSGSGTDFTLTISSLQPEDFATYYCQNYYYSTSRSYGFGGGTKLTVLGGGGGSGGGGSGGGGSGGGGSEVQLVESGGGLVKPEGSLRLSCAASGFSFSSDYWMCWVRQAPGKGLEWIACIYAGDVDDTDYASWARGRFTISRDNSKNTVYLQMNSLRAEDTAVYYCARVDGFDITYFDLWGQGTLVTVSS
notes: VL-linker-VH; also called 27-07-G02-sc02
As usually defined, the Kd is a measure of binding affinity in units of concentration. A word on the koff: it is the rate constant with which the complex falls apart. Broadly, the kon is the rate constant with which the complex forms. One may read the IC50 as the concentration that inhibits the measured activity by half. Take B1: the “KD, cyno/KD, human” value with cynomolgus monkey IL-17A [1] is 1.69. The “IC50 in HT-29 assay, GRO-α secretion” value in the experiment with human IL-17A [2] came out at 0.1 ng/mL. Further, the equilibrium dissociation constant (Kd) came to 5.19 nM with cynomolgus monkey IL-17A [3], 0.0551 nM in the experiment with human IL-17A [5] and 3.07 nM in the experiment with human IL-17A [6]. For the same molecule, the results for the koff in the experiment with cynomolgus monkey IL-17A [3], in the experiment with human IL-17A [5] and with human IL-17A [6] were 0.000868 s⁻¹, 5.92e-05 s⁻¹ and 0.000697 s⁻¹, respectively. Further, the kon came out at 167000 M⁻¹ s⁻¹ in the experiment with cynomolgus monkey IL-17A [3], 1.08e+06 M⁻¹ s⁻¹ with human IL-17A [5] and 227000 M⁻¹ s⁻¹ in the experiment with human IL-17A [6]. Moreover, the half-maximal inhibitory concentration (IC50) with human IL-17A [4] amounted to 1.6 ng/mL.
